In the nanobody polyreactivity screen of Harvey et al. (2022):

Assay: yeast display, Sf9 membrane polyspecificity reagent, FACS + sequencing; frameworks hold sequencing errors
How it was run: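 Using colony PCR, genes from sorted yeast display clones were amplified, then sequenced on MiSeq at 2 × 250 and filtered by CDR length. The clones had been stained with 10% biotinylated, detergent-solubilized Sf9 membrane reagent for 1 hour at 4 °C and sorted by FACS into low and high (top ~1%) gates on anti-HA and streptavidin fluorescence. Polyreactivity labels come from the gate of origin.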

Row | Sequence | polyreactivity (PSR sort gate)
1 | QVQLVESGGGLVQAGGSLRLSCAASGITFRTNAMGWYRQAPGKERELVAVISSTGGRTYYADSVKGRFTISRDNAKNTVYLQMNSLNPEDTAVYYCAARAKYRFGYDYWGQGTQVTVSS | high polyreactivity
2 | QVQLVESGGGLVQAGGSLRLSCAASGITFRTNTMGWYRQAPGKERELVAAITRSGVTTYYADSVKGRFTISRDNAKNTVYLQMNSLKPEDTAVYYCAARSTKYLYGYWGQGTQVTVSS | high polyreactivity
3 | QVQLVESGGGLVQAGGSLRLSCAASGITFRTYAMGWYRQAPGKERELVAAISSSGGSTYYADSVKGRFTISRDNAKNTVYLQMNSLKPADTAVYYCAAEWIADLSSPVWYDYWGQGTQVTVSS | high polyreactivity
4 | QVQLVESGGGLVQAGGSLRLSCAASGITFRWNAMGWYRPAPGKARELVAAITYRGGSTHYADSVKGRFTISRDNGKNSVYIQMNSLKPEDTAVYYCAVRRWPRYRWSDYWVQGTQVTVSS | low polyreactivity
5 | QVQLVESGGGLVQAGGSLRLSCAASGITFRYNAMGWYRQAPGKERQLVAGITGSGGRTYYADSVKGRFTISRDNAKNSVYLQMNSLKPEDTAVYYCAAYPPARRTMDYWGQGTQVTVSS | low polyreactivity
6 | QVQLVESGGGLVQAGGSLRLSCAASGITFRYYAMGWDRQAPGKERELVAAINRGGDSTYYADSVKGRFTISRDNAKNTVYLQMNSLKPEDTAVYYCAASSYYRGTFYPSYYWGQGTQVTVSS | high polyreactivity
7 | QVQLVESGGGLVQAGGSLRLSCAASGITFRYYAMGWYRQAPGKERELVAAISDGGSTNYADSVKGRFTISRDNAKNTVYLQMNSLKPEDTAVYYCDADYRYLFDYWGQGTQVTVSS | high polyreactivity
8 | QVQLVESGGGLVQAGGSLRLSCAASGITFRYYAMGWYRQAPGKERELVAAISGSGGSTYYADSVKGRFTISRDNAKNTVYLQMNSLKPEDTAVNYCNVDKGYSRSLRLGYDYWGQGTEVTVSS | high polyreactivity
9 | QVQLVESGGGLVQAGGSLRLSCAASGITFRYYAMGWYRQAPGKERELVAAISSTGGSTYYADSVKGRFTISRDNAKNTVYLQMNSLKPEDTAVYYCNADTTFYGYRTYRPENYWGQGTQVTVSS | high polyreactivity
10 | QVQLVESGGGLVQAGGSLRLSCAASGITFRYYTMGWYRQAPGKERELVAAISRSGGSTYYADSVKGRFTISRDNAKNNVYLQMNSLKPEDTAVYYCAVDYTYDMDYWGQGTQVTVSS | high polyreactivity
11 | QVQLVESGGGLVQAGGSLRLSCAASGITFSDYAMGWYRQAPGKEWELVAAISARGGSTYYADSVKGRFTISRDNAKNTVYLQMNSLKPEDTAVYYCAADKRTPYYSRAGMDYWGQGTQVTVSS | low polyreactivity
12 | QVQLVESGGGLVQAGGSLRLSCAASGITFSGNAMGWYRQAPGKERELVAAITWRGDNTYYADSVKGRFTISRDNAKNTVYLQMNSLKPEDTAVYSCAAKSPLFGLTSYPGPDDSWGQGTQVTVSS | low polyreactivity
13 | QVQLVESGGGLVQAGGSLRLSCAASGITFSGNTMGWYRQAPGKERELVAAISSGGSTYYADSVKGRFTISRDNAKNTVLLQMNSLKPEDTAVYYCNADIYYAPYDYWGQGTQVTVSS | low polyreactivity
14 | QVQLVESGGGLVQAGGSLRLSCAASGITFSNYSMGWYRQAPGKERELVAAISKRGGSTYYADSVKGRFTISRDNAKNTVYLQMNSLKPEDTAVYYCAAAGVRVYVRSGLDYWGQGTQVTVSS | high polyreactivity
15 | QVQLVESGGGLVQAGGSLRLSCAASGITFSQYAMGWYRQAPGTERELVAAISGSGGDTYYADSVKGRFTISRDNAKNTVYLQMNSLKPEDTAVYYCNADYESVYYEDYDYWGQGTQVTVSS | low polyreactivity
16 | QVQLVESGGGLVQAGGSLRLSCAASGITFSRNAMGWYRQAPGKERELVAAINWTGGNTYYADSVKGRFTISRDNAKNTVYLQMNSLKPEDTAVYYCAADRRWFVWGLGYWGQGTQVTVSS | low polyreactivity
17 | QVQLVESGGGLVQAGGSLRLSCAASGITFSRNAMGWYRQAPGNERELVATITSGCSTNYADSVKGRFTISRDNAKNNVYLQMNSLKPEDTAIYYCNAVWNTFISGRSYDYWGQGTQVTVSS | low polyreactivity
18 | QVQLVESGGGLVQAGGSLRLSCAASGITFSRNARGGERQAPGQERELVATITSGGSTNYADSVKGRFTISRDNAKNTVYLQMNSLKPEDTAVFYCNAVWNTFISGRSYDYWGQGTQVTVSS | low polyreactivity
19 | QVQLVESGGGLVQAGGSLRLSCAASGITFSRNVMGWSRQAPGKERELVAAISRSGGRTYYADSVKGRFTISRDNAMYTVYLQMNRLKPEDTAVYYCNRDIGGTSVLDDYWGQGNQVTVSS | low polyreactivity
20 | QVQLVESGGGLVQAGGSLRLSCAASGITFSSYAMGWYRQAPGTEREFVARISTDADTYYADSVKGRFTISRDNAKHTVLLQMNSLKPEDTAVYYCAAEDYRDFDYWGHGTQVTVSS | low polyreactivity
21 | QVQLVESGGGLVQAGGSLRLSCAASGITFSYNAMGWSRQAPGKERELVAAISSNSDSTYYADSVKGRFTISRDNAKNTVYLQMNSLKPEDTAVYYCAADSPDDPDYSGFYYWGQGSQVTVSS | low polyreactivity
22 | QVQLVESGGGLVQAGGSLRLSCAASGITFSYNAMGWYRQAPGKERELVAAISDIGGSTYYADSVKGRFTISRDNAKITVYLQMNSLKPEDTAVYYCAADEYYQDEYDYWGQGTQVTVSS | low polyreactivity

Row | Sequence | polyreactivity (PSR sort gate)
23 | QVQLVESGGGLVQAGGSLRLSCAASGITFSYNAMGWYRQAPGKERELVAAISSNSDSTYYADSVKGRFTISRDYAKNTVYLQMNRLKPEDTAVYYCAADTPDAPDYSGFYYWGQGTQVTVSS | low polyreactivity
24 | QVQLVESGGGLVQAGGSLRLSCAASGITFSYYAMGWYRPAPGKERELVAAINSGGGSTYYADSVKGRFTISRDNAKNTVFLQMNSLKPDDTAVYYCAARYRSRYEYYYDRDYWGQGTQVSVSS | low polyreactivity
25 | QVQLVESGGGLVQAGGSLRLSCAASGITFSYYAMGWYRQAPGKERELVAAINGGGSRTYYADSVKGRFTISRDNAKNTVYLQMNSLKPEDTAVYYCAAYSGQARGYDYWGQGTQVTVSS | high polyreactivity
26 | QVQLVESGGGLVQAGGSLRLSCAASGITFTFNAMGWYRQAPGKERELVAAITWSGGSTFYADSVKGRFTFSRDNAKNTVYLQMNSLKPEDTAVYYCARDTELYVRWLDYWVQGTQVTVSS | low polyreactivity
27 | QVQLVESGGGLVQAGGSLRLSCAASGITFTPNAMGWYRQAPGKEREFVAAITYSGGSTYYADSVKGRFTISRDNAKNTVYLQMNSLKPEDTAVYYCAAVYYLLYYEAYYYWGQGTQVTVSS | low polyreactivity
28 | QVQLVESGGGLVQAGGSLRLSCAASGITFTPYAMGWYRQAPGKERELVAAITSGGSTNYADSVKGRFTISRDNAKNTVYLQMNSLKPEDTAVYYCAAGRWPAPWYTRNYWGQGTQVTVSS | low polyreactivity
29 | QVQLVESGGGLVQAGGSLRLSCAASGITFTRNVMGWYRQAPGKERELVAAISGSGGSTYYADSVKGRFTISRDNEKNTVYLQMNSLKTEDTAVYYCAARSRGGRRYDYWGQGTQVTVSS | high polyreactivity
30 | QVQLVESGGGLVQAGGSLRLSCAASGITFTRYAMGWYRQAPGKERELVAAISSGGRTNYADSVKGRFTISRDNAKNTVYLQMNSLKPEDTGVYYCNAAGHRWDPRYHYWGQGTQVTVSS | high polyreactivity
31 | QVQLVESGGGLVQAGGSLRLSCAASGITFTSNTLGWYRQAPGKERELVAAISKSGGSTYYADSVKGRFTISRDNAKNTVYLQMNSLKPEDTAVYYCAKDSDYYRRDVTVDYWGQGTQVTVSS | low polyreactivity
32 | QVQLVESGGGLVQAGGSLRLSCAASGITFTSNTMGWYRQAPGKERELVAAISKSGGSTYYADSVKGRFTISRDNEKNTVYLQMNSLKPEDTAVYYCNTVSFYDPFGAYGYWGQGTQVTVSS | high polyreactivity
33 | QVQLVESGGGLVQAGGSLRLSCAASGITFTSYAMGWYRQAPGKERELVAAISAGGGRTYYADSVKGRFTISRDNAKNTVYLQMNSLKPEDTAVYYCAVKYPELRTWGYYYWGQGTQVTVSS | high polyreactivity
34 | QVQLVESGGGLVQAGGSLRLSCAASGITFTSYVMGWYRQAPGKERELVAAISRSGGSSTYYADSVKGRFTISRDNAKNTVYLQMNSLKPEDTAVYYCAADSPYTGGANVYWGQGTQVTVSS | high polyreactivity
35 | QVQLVESGGGLVQAGGSLRLSCAASGITFTVYAMGWYRQAPGKERELVAAITSTGSTNYAHSVKGRFTISRDNAKNTVYLLMNSLKPEDTAVYYCAADRQITVYAYDYWGQGTQVTVSS | low polyreactivity
36 | QVQLVESGGGLVQAGGSLRLSCAASGITFTYYAMGWYRQAPGKERELVAAITWRGGSTYYADSVKGRFTISRDNAKNTVYLQMNSLKPEDTAVYYCAADVYVGPYHYEYWGQGTQVTVSS | high polyreactivity
37 | QVQLVESGGGLVQAGGSLRLSCAASGITFVGNAMGWSRQAPGKERELVAAMSSSGASTYYADSVKGRFTISRDYAKNTVYLQMNSLKPEDTAVYYCNAGWGVVIRRYPTYDYWGQGTQVTVSS | high polyreactivity
38 | QVQLVESGGGLVQAGGSLRLSCAASGITFVHNVMGWYRQAPGKERELVAAINSGGRTYYADSVKGRFTISRDNAKNTVYLQMNSLKPEDTAVYYCAALGDKRGGGNYWGQGTQVTVSS | high polyreactivity
39 | QVQLVESGGGLVQAGGSLRLSCAASGITFVLNARGWYRQAPGKERELVARISWSTGSTYYADSVKGRFTISRDNAKNTVYLQMNSLKPEDTAVYYCAVDYNYQSLYVVVEGEYWGQGTQVTVSS | low polyreactivity
40 | QVQLVESGGGLVQAGGSLRLSCAASGITFVLYAMGWYRQAPGKERELVAANSSSGGRTYYADSVKGRFTISRDYAKNTVYLQMNSLKPEDTAVYYCAKDTYGFAANRPAGDGYWGQGTQVTVSS | high polyreactivity
41 | QVQLVESGGGLVQAGGSLRLSCAASGITFVNNSRGCYRQAPVKEREFVAAISQGGGSTYYADSVKGRFTISRDNAKYTVYLQMNSLKPEDTAVYYCAAEIPRWWRFGYWGQGTQVTVSS | low polyreactivity
42 | QVQLVESGGGLVQAGGSLRLSCAASGITFVPNAMGWYRQAPGKERELVAAITGNGGRTYYADSVKGRFTISRDNAKNTVYLQMNSLKPEDTAVYYCNGRKLYWAYTLSKYDYWGQGTQLTVSS | high polyreactivity
43 | QVQLVESGGGLVQAGGSLRLSCAASGITFVQNVMGWYRQAPGKEREFVAGINYSGGSTYYADSVKGRFTISRDNAKNTVYLQMNSLKPEDTAVYYCAADYDRYTYAFVYRYRRMYYWGQGTQVTVSS | low polyreactivity
